According to patent publication US20050147555A1 (BRACCO SUISSE, published 2005):
Positions of bridges follow the written chain, without caps; N, C: chain ends. Groups on a side chain read outwards from the residue. Primed or numbered codes have the meaning given here. Chains are numbered I, II in the order given. No end group written: not given here. *: point of attachment. ivDde′ = 1-(4,4-dimethyl-2,6-dioxocyclohex-1-ylidene)-3-methylbutyl, CC(C)CC(=C1C(=O)CC(C)(C)CC1=O)*; Biotin = O=C1N[C@H]2[C@H](CS[C@H]2CCCCC(=O)*)N1; AEEA = NCCOCCOCC(=O)O

How the values were obtained:
[1] = molecular target: T1, KDR (VEGFR-2, Flk-1), full-length receptor on cells (human, UniProt P35968 20-1356); assay: cell-based or functional assay
T1 sequence (P35968 20-1356): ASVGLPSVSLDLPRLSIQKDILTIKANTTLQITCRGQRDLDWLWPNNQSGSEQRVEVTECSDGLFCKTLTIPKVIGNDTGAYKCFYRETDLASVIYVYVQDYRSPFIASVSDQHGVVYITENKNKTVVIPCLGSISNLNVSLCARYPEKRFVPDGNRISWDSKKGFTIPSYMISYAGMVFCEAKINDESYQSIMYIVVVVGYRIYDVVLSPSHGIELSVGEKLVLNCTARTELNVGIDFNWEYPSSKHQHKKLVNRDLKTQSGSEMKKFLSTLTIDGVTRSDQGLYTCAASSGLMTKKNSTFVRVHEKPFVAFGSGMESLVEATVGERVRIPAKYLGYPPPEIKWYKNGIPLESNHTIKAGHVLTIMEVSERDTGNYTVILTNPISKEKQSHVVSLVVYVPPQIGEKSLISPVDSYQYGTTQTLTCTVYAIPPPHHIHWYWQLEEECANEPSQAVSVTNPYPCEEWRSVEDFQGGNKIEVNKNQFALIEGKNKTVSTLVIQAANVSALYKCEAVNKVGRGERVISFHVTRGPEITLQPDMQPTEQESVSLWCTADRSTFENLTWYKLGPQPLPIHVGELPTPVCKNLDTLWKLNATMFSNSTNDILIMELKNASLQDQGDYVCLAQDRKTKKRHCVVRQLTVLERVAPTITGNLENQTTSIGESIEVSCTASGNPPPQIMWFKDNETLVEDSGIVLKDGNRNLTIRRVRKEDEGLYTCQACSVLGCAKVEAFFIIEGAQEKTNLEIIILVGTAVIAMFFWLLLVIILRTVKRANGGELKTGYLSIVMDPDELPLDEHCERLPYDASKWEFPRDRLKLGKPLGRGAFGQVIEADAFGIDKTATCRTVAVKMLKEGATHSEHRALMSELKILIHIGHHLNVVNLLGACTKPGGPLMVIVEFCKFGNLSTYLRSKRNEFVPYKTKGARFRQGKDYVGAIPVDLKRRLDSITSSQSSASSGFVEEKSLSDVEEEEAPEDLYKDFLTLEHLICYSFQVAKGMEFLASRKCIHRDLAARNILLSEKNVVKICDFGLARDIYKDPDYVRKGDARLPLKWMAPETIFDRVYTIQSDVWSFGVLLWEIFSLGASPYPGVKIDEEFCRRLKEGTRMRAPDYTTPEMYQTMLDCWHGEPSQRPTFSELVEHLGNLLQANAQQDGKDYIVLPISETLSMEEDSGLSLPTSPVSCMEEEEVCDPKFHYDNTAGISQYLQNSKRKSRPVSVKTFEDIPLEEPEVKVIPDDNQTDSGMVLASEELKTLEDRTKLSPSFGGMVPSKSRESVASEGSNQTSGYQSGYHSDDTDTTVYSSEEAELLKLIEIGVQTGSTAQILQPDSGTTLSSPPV

[2] = molecular target: T1, KDR (VEGFR-2, Flk-1), full-length …; assay: competition: corresponding free peptide against P12-conjugated microbubbles on KDR-transfected 293H cells, % binding (surface covered, relative)
Experimental: (§1) The transfected cells were incubated with a suspension of peptide-conjugated microbubbles in presence or absence of the corresponding free peptide (between 100 μM to 3 nM). Competition was also performed using a non-binding control peptide as a competing compound. At the end of the incubation, the transfected cells were rinsed three times in PBS and examined under a microscope. Binding of the conjugated bubbles was quantified and expressed as a percent of the surface covered by the targeted microbubbles.

[3] = molecular target: T1, KDR (VEGFR-2, Flk-1), full-length …; assay: binding of the 125I-labeled dimer to KDR- and mock-transfected 293H cells with and without 40% mouse serum, CPM bound
Experimental: Binding was performed with and without 40% mouse serum to evaluate the serum effect on binding to KDR-transfected cells. After washing away the unbound compound, the cells in each well were lysed with 0.5 N NaOH and the lysates were counted with a gamma counter.

[4] = molecular target: T1, KDR (VEGFR-2, Flk-1), full-length …; assay: competition with 125I-VEGF for specific binding to KDR-transfected 293H cells, % inhibition
Text: (§2) After washing the cells, the bound radioactivity was quantitated on a gamma counter.

[5] = molecular target: T2, KDR-Fc (chimeric fusion of Ig Fc region with human KDR, R&D Systems #357-KD-050) (human, UniProt P35968 20-764); assay: fluorescence polarisation against KDR-Fc
T2 construct: Bought; also called KDR Fc fusion; not shown: Ig Fc region of the bought chimera
T2 sequence (P35968 20-764, stated change not applied): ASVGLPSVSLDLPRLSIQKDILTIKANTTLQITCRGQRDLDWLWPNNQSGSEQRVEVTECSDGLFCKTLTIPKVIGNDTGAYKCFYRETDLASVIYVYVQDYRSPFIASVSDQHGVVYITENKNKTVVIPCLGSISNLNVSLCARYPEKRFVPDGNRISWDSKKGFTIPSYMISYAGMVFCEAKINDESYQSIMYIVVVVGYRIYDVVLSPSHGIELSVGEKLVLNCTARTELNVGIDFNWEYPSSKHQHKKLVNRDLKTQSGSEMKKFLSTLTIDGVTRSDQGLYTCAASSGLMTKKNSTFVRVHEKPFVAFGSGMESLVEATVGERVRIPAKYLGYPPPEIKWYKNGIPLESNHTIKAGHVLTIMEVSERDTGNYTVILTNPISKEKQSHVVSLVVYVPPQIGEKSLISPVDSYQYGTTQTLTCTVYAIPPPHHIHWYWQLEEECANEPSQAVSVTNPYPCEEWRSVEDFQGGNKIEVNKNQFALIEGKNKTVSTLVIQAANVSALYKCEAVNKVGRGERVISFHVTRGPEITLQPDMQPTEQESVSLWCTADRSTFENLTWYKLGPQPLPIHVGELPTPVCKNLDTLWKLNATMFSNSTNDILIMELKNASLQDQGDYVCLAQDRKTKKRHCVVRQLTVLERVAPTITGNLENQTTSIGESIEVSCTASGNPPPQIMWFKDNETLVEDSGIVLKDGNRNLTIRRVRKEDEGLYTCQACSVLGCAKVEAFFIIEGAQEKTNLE

[6] = molecular target: T1, KDR (VEGFR-2, Flk-1), full-length …; assay: competition with 125I-labeled VEGF for binding to KDR-transfected 293H cells, % inhibition of specific binding
Text: as §2

[7] = molecular target: T3, murine KDR-Fc (recombinant, R&D Systems #443-KD-050) (murine, UniProt P35918 20-762); assay: SPR (BIAcore), murine KDR-Fc 5000 RU; KD1 = kd1/ka1
T3 construct: Bought; also called rmKDR-Fc; recombinant murine KDR-Fc; not shown: Ig Fc region of the bought chimera
T3 sequence (P35918 20-762): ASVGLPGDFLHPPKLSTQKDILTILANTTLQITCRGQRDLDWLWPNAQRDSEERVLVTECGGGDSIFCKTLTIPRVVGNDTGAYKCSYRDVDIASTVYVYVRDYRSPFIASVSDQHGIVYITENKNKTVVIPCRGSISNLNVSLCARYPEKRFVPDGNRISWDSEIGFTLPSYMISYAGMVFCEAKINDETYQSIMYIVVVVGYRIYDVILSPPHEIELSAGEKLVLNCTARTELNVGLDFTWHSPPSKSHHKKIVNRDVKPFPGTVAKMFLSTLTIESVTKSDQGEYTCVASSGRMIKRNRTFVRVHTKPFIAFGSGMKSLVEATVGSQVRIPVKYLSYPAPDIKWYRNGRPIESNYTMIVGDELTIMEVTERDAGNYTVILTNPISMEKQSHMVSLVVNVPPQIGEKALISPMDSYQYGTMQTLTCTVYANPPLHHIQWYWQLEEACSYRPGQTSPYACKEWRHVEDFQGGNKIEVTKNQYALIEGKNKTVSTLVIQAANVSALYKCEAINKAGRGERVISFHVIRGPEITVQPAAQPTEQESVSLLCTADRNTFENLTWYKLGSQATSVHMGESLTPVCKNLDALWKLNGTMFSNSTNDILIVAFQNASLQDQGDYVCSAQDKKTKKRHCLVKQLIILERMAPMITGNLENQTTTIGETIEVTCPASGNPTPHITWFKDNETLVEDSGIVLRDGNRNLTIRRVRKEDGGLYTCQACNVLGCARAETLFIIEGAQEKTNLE

[8] = molecular target: T3, murine KDR-Fc (recombinant, R&D Systems …); assay: SPR (BIAcore), murine KDR-Fc 2700 RU; KD1 = kd1/ka1
Experimental: All samples were injected in duplicate. For association, peptides were injected at 30 μL/min for 3 minutes using the kinject program. Following a 10 minute dissociation, any remaining peptide was stripped from the rmKDR-Fc surface with a quickinject of 50 mM NaOH+1M NaCl for 12s at 75 μL/min.
Sensorgrams were analyzed using the simultaneous ka/kd fitting program in the BIAevaluation software 3.1.

[9] = molecular target: T1, KDR (VEGFR-2, Flk-1), full-length …; assay: competition with 125I-VEGF on KDR-transfected 293H cells
Experimental: Cells were used 24 h after transfection, and to prepare the cells for the assay, they were washed 3 times with room temperature M199 medium and placed in the refrigerator. […] Each dilution was added to three separate wells of mock and KDR transfected cells. After incubating at 4° C. for 2 h, the plates were washed 5 times with cold binding buffer, gently blotted dry and checked under a microscope for cell loss. 100 μL of solubilizing solution (2% Triton X-100, 10% Glycerol, 0.1% BSA) was added to each well and the plates were incubated at room temperature for 30 minutes. The solubilizing solution in each well was mixed by pipeting up and down, and transferred to 1.2 mL tubes. Each well was washed twice with 100 μL of solubilizing solution and the washes were added to the corresponding 1.2 mL tube.

[10] = molecular target: T1, KDR (VEGFR-2, Flk-1), full-length …; assay: competition: free dimer against P13-conjugated microbubbles on KDR-transfected 293H cells, % binding
Experimental: (§3) At the end of the incubation, the transfected cells were rinsed three times in PBS and examined under a microscope. Binding of the conjugated bubbles was quantified and expressed as a percentage of the surface covered by the targeted microbubbles.

[11] = molecular target: T1, KDR (VEGFR-2, Flk-1), full-length …; assay: competition: corresponding free peptide against D23-conjugated microbubbles on KDR-transfected 293H cells, % binding (surface covered, relative)
Experimental: as §1

[12] = molecular target: T1, KDR (VEGFR-2, Flk-1), full-length …; assay: displacement of P12-XB/streptavidin-HRP complex (5.5 nM) from KDR-expressing cells
Experimental: After determining the specific binding under each experimental condition, the IC₅₀ for each peptide was determined (where possible).

[13] = molecular target: T1, KDR (VEGFR-2, Flk-1), full-length …; assay: P13-conjugated microbubbles on KDR-transfected 293H cells in the presence of rising free dimer (f5), % binding
Experimental: as §3

[14] = molecular target: T1, KDR (VEGFR-2, Flk-1), full-length …; assay: binding of the 99mTc-labeled scrambled dimer (D18 by legend paragraph 74; name box empty) to KDR- and mock-transfected 293H cells with and without 40% mouse serum, bound CPM
Experimental: Cells were used 24 h after transfection, and to prepare the cells for the assay, they were washed 1× with 100 μL of room temperature opti-MEMI with 0.1% HSA. […] Each dilution was added to three separate wells of mock and KDR-transfected cells. After incubating at room temperature for 1 h, the plates were washed 5 times with 100 μL of cold binding buffer (opti-MEMI with 0.1% HSA). 100 μL of solubilizing solution (0.5 N NaOH) was added to each well, and the plates were incubated at 37° C. for 10 minutes. The solubilizing solution in each well was mixed by pipeting up and down, and transferred to 1.2 mL tubes. Each well was washed once with 100 μL of solubilizing solution and the washes were added to the corresponding 1.2 mL tube.

B1: D1 (peptide)
peptide 1: AGPTWCEDDWYYCWLFGTGGGK
peptide 2: VCWEDSWGGEVCFRYDPGGGK
modifications: not fully specified; N-acetyl; C2-C12 disulfide; C-terminal Lys amide (printed as NH(CH2)4-(S)-CH(..NH)CONH2), side chain joined to linker; N-acetyl; C6-C13 disulfide; C-terminal amide; Lys22 side chain bears branch/linker
notes: J = 8-amino-3,6-dioxaoctanoyl; also called DI
IC50 in the activation assay against that of D2 [1]: ≥ 100 fold lower than D2

B2: P12 (peptide)
peptide: AGPTWCEDDWYYCWLFGT
modifications: disulfide 6-13
notes: the list holds only the microbubble conjugate m56 and other P12 derivatives
binding result [2]: binds

Ac-AGWIECYHPDGICYHFGTGGGK-NH2 (disulfide 6-13 (inferred)) [P2-D]
VEGF-induced KDR phosphorylation in HUVECs (immunoblot) [1]: ≥ 50 % inhibition at 10 µM

B3: D17 (peptide)
peptide 1: AQDWYYDEILGRGGRGGRGGK
peptide 2: VCWEDSWGGEVCFRYDPGGGK
modifications: not fully specified; N-acetyl; C2-C12 disulfide; C-terminal amide; Lys21 side chain joined to JJ-glutaryl linker; N-acetyl; J (8-amino-3,6-dioxaoctanoyl) between Leu10 and the next Gly; C-terminal Lys side chain bears the branching Lys; C-terminal amide
IC50, VEGF-induced migration of HUVECs [1]: ~250 nM

Ac-GDSRVCWEDSWGGEVCFRYDPGGGK-NH2 (disulfide 6-16 (inferred)) [P6-D]
IC50, VEGF-induced KDR phosphorylation in HUVECs [1]: 1000 nM | VEGF-induced KDR phosphorylation in HUVECs (immunoblot) [1]: ≥ 50 % inhibition at 10 µM

B4: 125I-labeled D5 (peptide)
peptide 1: VCWEDSWGGEVCFRYDPGGGK
peptide 2: AGPTWCEDDWYYCWLFGTGGGK
modifications: not fully specified; N-acetyl; C6-C13 disulfide; C-terminal Lys amide, side chain carries the branching Lys; 125I Bolton-Hunter label on the free amine; N-acetyl; C2-C12 disulfide; C-terminal amide; Lys21 side chain joined to JJ-glutaryl linker
binding result [3]: binds

B5: D24 (peptide)
peptide 1: AGPTWCEDDWYYCWLFGTGGGK
peptide 2: VCWEDSWGGEVCFRYDPGGGK
modifications: not fully specified; N-acetyl; C2-C12 disulfide; C-terminal amide; Lys21 side chain joined to JJ-glutaryl linker; N-acetyl; C6-C13 disulfide; C-terminal amide; Lys22 side chain bears SATA-JJ-Lys branch
IC50, VEGF-induced migration of HUVECs [1]: 5 nM

Ac-AGWLECYAEFGHCYNFGTGGGK-NH2 (disulfide 6-13 (inferred)) [P3-D]
VEGF-induced KDR phosphorylation in HUVECs (immunoblot) [1]: ≥ 50 % inhibition at 10 µM

B6: PG-1 (peptide)
peptide: Ac-ERVTTCWPGEYGGVECYSVAY-NH2
modifications: not fully specified (bridges); printed as Ac-ERVTTCWPGEYGGVECYSVAY—NH2; cysteine pairing not given here
binding result [4]: binds

Ac-AQGDYVYWEIIELTGATDHTPPGGGK-NH2 [P11-D]
VEGF-induced KDR phosphorylation in HUVECs (immunoblot) [1]: ≥ 50 % inhibition at 10 µM

AGDSWCSTEYTYCEMIGT (disulfide 6-13; not fully specified) [P4]
Kd [5]: > 2000 nM

B7: D3 (peptide)
peptide 1: VCWEDSWGGEVCFRYDPGGGK
peptide 2: VCWEDSWGGEVCFRYDPGGGK
modifications: not fully specified; N-acetyl; C2-C12 disulfide; C-terminal Lys amide, side chain joined to linker; N-acetyl; C2-C12 disulfide; C-terminal amide; Lys21 side chain bears Biotin-JJK branch and linker
binding result [6]: binds

Ac-AGPTWCEDDWYYCWLFGTGGGK-NH2 (disulfide 6-13; also: fluorescein label (site not given here)) [Fluorescein labeled P12-G]
Kd [7]: 33.6 nM | Kd [8]: 36.4 nM

B8: P12-XB (peptide)
peptide: Ac-AGPTWCEDDWYYCWLFGTGGGK([AEEA-AEEA-Biotin])-NH2
modifications: disulfide 6-13
SMILES: CC(=O)N[C@@H](C)C(=O)NCC(=O)N1CCC[C@H]1C(=O)N[C@H](C(=O)N[C@@H](Cc1c[nH]c2ccccc12)C(=O)N[C@H]1CSSC[C@@H](C(=O)N[C@@H](Cc2c[nH]c3ccccc23)C(=O)N[C@@H](CC(C)C)C(=O)N[C@@H](Cc2ccccc2)C(=O)NCC(=O)N[C@H](C(=O)NCC(=O)NCC(=O)NCC(=O)N[C@@H](CCCCNC(=O)COCCOCCNC(=O)COCCOCCNC(=O)CCCC[C@@H]2SC[C@@H]3NC(=O)N[C@@H]32)C(N)=O)[C@@H](C)O)NC(=O)[C@H](Cc2ccc(O)cc2)NC(=O)[C@H](Cc2ccc(O)cc2)NC(=O)[C@H](Cc2c[nH]c3ccccc23)NC(=O)[C@H](CC(=O)O)NC(=O)[C@H](CC(=O)O)NC(=O)[C@H](CCC(=O)O)NC1=O)[C@@H](C)O
notes: Free monomeric peptide
% inhibition of 125I-VEGF binding at 0.3 µM [9]: 81% | % inhibition of 125I-VEGF binding at 30 µM [9]: 104% | IC50, VEGF-induced KDR phosphorylation in HUVECs [1]: 100 nM

B9: D23 (peptide)
P12-derived peptide: Ac-AGPTWCEDDWYYCWLFGTGGGK-NH2
truncated P6-derived peptide: Ac-VCWEDSWGGEVCFRYDPGGGK-NH2
modifications: disulfide I:6-I:13, II:2-II:12; not fully specified (bridges)
notes: Free, not on microbubbles (the list holds only the conjugate m37); The text says only 'corresponding free' dimeric peptide; also called free dimer
IC50 (read off the curve) [10]: ~20 nM | IC50 (read off the curve) [11]: ~30 nM

Ac-AQAFPRFGGDDYWIQQYLRYTDGGK-NH2 [P10-D]
VEGF-induced KDR phosphorylation in HUVECs (immunoblot) [1]: ≥ 50 % inhibition at 10 µM

Ac-GDPDTCTMWGDSGRWYCFPADPGGGK-NH2 (disulfide 6-17 (inferred)) [P8-D]
VEGF-induced KDR phosphorylation in HUVECs (immunoblot) [1]: ≥ 50 % inhibition at 10 µM

Ac-DWYYGGGK-NH2 [F1]
IC50 [12]: 850 nM

Ac-AQEPEGYAYWEVITLYHEEDGDGGK-NH2 [P9-D]
VEGF-induced KDR phosphorylation in HUVECs (immunoblot) [1]: ≥ 50 % inhibition at 10 µM

AQDWYYDEILSMADQLRHAFLSGG (also: conjugated to microbubbles) [P13 conjugated to microbubbles]
binding result [13]: binds

B10: D2 (peptide)
peptide 1: AGPTWCEDDWYYCWLFGTGGGK
peptide 2: AGPTWCEDDWYYCWLFGTK
modifications: not fully specified; N-acetyl; C6-C13 disulfide; J (8-amino-3,6-dioxaoctanoyl) between Thr18 and the C-terminal Lys amide, whose side chain is joined to the linker; N-acetyl; C6-C13 disulfide; C-terminal amide; Lys22 side chain bears branch/linker
binding result [6]: binds

B11: 99mTc-labeled D18 (peptide)
peptide 1: Ac-APGTWCDYDWEYCWLGTFGGGK-NH2
peptide 2: Ac-GVDFRCEWSDWGEVGCRSPDYGGGK-NH2
modifications: disulfide I:6-I:13, II:6-II:16; not fully specified (some residues, bridges); printed as Ac-APGTWC*DYDWEYC*WLGTFGGGK{PnAO6-Glut-K[Ac-GVDFRC*EWSDWGEVGC*RSPDYGGGK(JJ-Glut)-NH2]}—NH2; also: 99mTc complex on PnAO6
notes: also called scrambled derivative of D10
binding result [14]: no binding (tested: 10.0 uCi/mL)

Ac-AQDWYYDEILSMADQLRHAFLSGG-NH2 [P13-D]
binding result [6]: binds

Ac-GDWWECK(ivDde′)REEYRNTTWCAWADPGGGK-NH2 (disulfide 6-17 (inferred)) [P7-E]
VEGF-induced KDR phosphorylation in HUVECs (immunoblot) [1]: ≥ 50 % inhibition at 10 µM

GDSRVCWEDSWGGEVCFRYDP (disulfide 6-16 (inferred)) [P6]
% inhibition of 125I-VEGF binding at 0.3 µM [9]: 52.3% | % inhibition of 125I-VEGF binding at 30 µM [9]: 96.3%
